B1: MYT2658 (antibody, V domains shown)
VH: QVQLVQSGAEVKKPGASVKVSCKASGYTFTNYDINWVRQAPGQGLEWIGWIYPGDGSTKYNEKFKAKATLTADTSTSTAYMELRSLRSDDTAVYYCASGYEDAMDYWGQGTTVTVSS
VL: DIQMTQSPSSLSASVGDRVTINCKASQDHNSYLSWFQQKPGKAPKTLIYRANRLVDGVPSRFSGSGSGQDYTLTISSLQPEDFATYYCLQYDEFPLTFGGGTKVEIK
notes: IgG; vadastuximab VL variant #6 (I29H)
B2: MYT2675 (antibody, V domains shown)
VH: QVQLVQSGAEVKKPGASVKVSCKASGYTFTNYDINWVRQAPGQGLEWIGWIYPGDGSTKYNEKFKAKATLTADTSTSTAYMELRSLRSDDTAVYYCASGYEDAMDYWGQGTTVTVSS
VL: DIQMTQSPSSLSASVGDRVTINCKASQDINSYLSWFQQKPGKAPKTLIYRANRLVDGVPSRFSGSGSGQDYTLTISSLQPEDFATYYCLQYDHFPLTFGGGTKVEIK
notes: IgG; vadastuximab VL variant #23 (E93H)
B3: MYT2662 (antibody, V domains shown)
VH: QVQLVQSGAEVKKPGASVKVSCKASGYTFTNYDINWVRQAPGQGLEWIGWIYPGDGSTKYNEKFKAKATLTADTSTSTAYMELRSLRSDDTAVYYCASGYEDAMDYWGQGTTVTVSS
VL: DIQMTQSPSSLSASVGDRVTINCKASQDINSYHSWFQQKPGKAPKTLIYRANRLVDGVPSRFSGSGSGQDYTLTISSLQPEDFATYYCLQYDEFPLTFGGGTKVEIK
notes: IgG; vadastuximab VL variant #10 (L33H)
B4: MYT2671 (antibody, V domains shown)
VH: QVQLVQSGAEVKKPGASVKVSCKASGYTFTNYDINWVRQAPGQGLEWIGWIYPGDGSTKYNEKFKAKATLTADTSTSTAYMELRSLRSDDTAVYYCASGYEDAMDYWGQGTTVTVSS
VL: DIQMTQSPSSLSASVGDRVTINCKASQDINSYLSWFQQKPGKAPKTLIYRANRLVDGVPSRFSGSGSGQDYTLTISSLQPEDFATYYCHQYDEFPLTFGGGTKVEIK
notes: IgG; vadastuximab VL variant #19 (L89H)
B5: MYT2659 (antibody, V domains shown)
VH: QVQLVQSGAEVKKPGASVKVSCKASGYTFTNYDINWVRQAPGQGLEWIGWIYPGDGSTKYNEKFKAKATLTADTSTSTAYMELRSLRSDDTAVYYCASGYEDAMDYWGQGTTVTVSS
VL: DIQMTQSPSSLSASVGDRVTINCKASQDIHSYLSWFQQKPGKAPKTLIYRANRLVDGVPSRFSGSGSGQDYTLTISSLQPEDFATYYCLQYDEFPLTFGGGTKVEIK
notes: IgG; vadastuximab VL variant #7 (N30H)
B6: MYT2665 (antibody, V domains shown)
VH: QVQLVQSGAEVKKPGASVKVSCKASGYTFTNYDINWVRQAPGQGLEWIGWIYPGDGSTKYNEKFKAKATLTADTSTSTAYMELRSLRSDDTAVYYCASGYEDAMDYWGQGTTVTVSS
VL: DIQMTQSPSSLSASVGDRVTINCKASQDINSYLSWFQQKPGKAPKTLIYRHNRLVDGVPSRFSGSGSGQDYTLTISSLQPEDFATYYCLQYDEFPLTFGGGTKVEIK
notes: IgG; vadastuximab VL variant #13 (A51H)
B7: MYT2676 (antibody, V domains shown)
VH: QVQLVQSGAEVKKPGASVKVSCKASGYTFTNYDINWVRQAPGQGLEWIGWIYPGDGSTKYNEKFKAKATLTADTSTSTAYMELRSLRSDDTAVYYCASGYEDAMDYWGQGTTVTVSS
VL: DIQMTQSPSSLSASVGDRVTINCKASQDINSYLSWFQQKPGKAPKTLIYRANRLVDGVPSRFSGSGSGQDYTLTISSLQPEDFATYYCLQYDEHPLTFGGGTKVEIK
notes: IgG; vadastuximab VL variant #24 (F94H)
B8: MYT2674 (antibody, V domains shown)
VH: QVQLVQSGAEVKKPGASVKVSCKASGYTFTNYDINWVRQAPGQGLEWIGWIYPGDGSTKYNEKFKAKATLTADTSTSTAYMELRSLRSDDTAVYYCASGYEDAMDYWGQGTTVTVSS
VL: DIQMTQSPSSLSASVGDRVTINCKASQDINSYLSWFQQKPGKAPKTLIYRANRLVDGVPSRFSGSGSGQDYTLTISSLQPEDFATYYCLQYHEFPLTFGGGTKVEIK
notes: IgG; vadastuximab VL variant #22 (D92H)
B9: MYT2677 (antibody, V domains shown)
VH: QVQLVQSGAEVKKPGASVKVSCKASGYTFTNYDINWVRQAPGQGLEWIGWIYPGDGSTKYNEKFKAKATLTADTSTSTAYMELRSLRSDDTAVYYCASGYEDAMDYWGQGTTVTVSS
VL: DIQMTQSPSSLSASVGDRVTINCKASQDINSYLSWFQQKPGKAPKTLIYRANRLVDGVPSRFSGSGSGQDYTLTISSLQPEDFATYYCLQYDEFHLTFGGGTKVEIK
notes: IgG; vadastuximab VL variant #25 (P95H)
B10: MYT2664 (antibody, V domains shown)
VH: QVQLVQSGAEVKKPGASVKVSCKASGYTFTNYDINWVRQAPGQGLEWIGWIYPGDGSTKYNEKFKAKATLTADTSTSTAYMELRSLRSDDTAVYYCASGYEDAMDYWGQGTTVTVSS
VL: DIQMTQSPSSLSASVGDRVTINCKASQDINSYLSWFQQKPGKAPKTLIYHANRLVDGVPSRFSGSGSGQDYTLTISSLQPEDFATYYCLQYDEFPLTFGGGTKVEIK
notes: IgG; vadastuximab VL variant #12 (R50H)
B11: MYT2670 (antibody, V domains shown)
VH: QVQLVQSGAEVKKPGASVKVSCKASGYTFTNYDINWVRQAPGQGLEWIGWIYPGDGSTKYNEKFKAKATLTADTSTSTAYMELRSLRSDDTAVYYCASGYEDAMDYWGQGTTVTVSS
VL: DIQMTQSPSSLSASVGDRVTINCKASQDINSYLSWFQQKPGKAPKTLIYRANRLVHGVPSRFSGSGSGQDYTLTISSLQPEDFATYYCLQYDEFPLTFGGGTKVEIK
notes: IgG; vadastuximab VL variant #18 (D56H)
B12: MYT2667 (antibody, V domains shown)
VH: QVQLVQSGAEVKKPGASVKVSCKASGYTFTNYDINWVRQAPGQGLEWIGWIYPGDGSTKYNEKFKAKATLTADTSTSTAYMELRSLRSDDTAVYYCASGYEDAMDYWGQGTTVTVSS
VL: DIQMTQSPSSLSASVGDRVTINCKASQDINSYLSWFQQKPGKAPKTLIYRANHLVDGVPSRFSGSGSGQDYTLTISSLQPEDFATYYCLQYDEFPLTFGGGTKVEIK
notes: IgG; vadastuximab VL variant #15 (R53H)
B13: MYT2672 (antibody, V domains shown)
VH: QVQLVQSGAEVKKPGASVKVSCKASGYTFTNYDINWVRQAPGQGLEWIGWIYPGDGSTKYNEKFKAKATLTADTSTSTAYMELRSLRSDDTAVYYCASGYEDAMDYWGQGTTVTVSS
VL: DIQMTQSPSSLSASVGDRVTINCKASQDINSYLSWFQQKPGKAPKTLIYRANRLVDGVPSRFSGSGSGQDYTLTISSLQPEDFATYYCLHYDEFPLTFGGGTKVEIK
notes: IgG; vadastuximab VL variant #20 (Q90H)
B14: MYT2668 (antibody, V domains shown)
VH: QVQLVQSGAEVKKPGASVKVSCKASGYTFTNYDINWVRQAPGQGLEWIGWIYPGDGSTKYNEKFKAKATLTADTSTSTAYMELRSLRSDDTAVYYCASGYEDAMDYWGQGTTVTVSS
VL: DIQMTQSPSSLSASVGDRVTINCKASQDINSYLSWFQQKPGKAPKTLIYRANRHVDGVPSRFSGSGSGQDYTLTISSLQPEDFATYYCLQYDEFPLTFGGGTKVEIK
notes: IgG; vadastuximab VL variant #16 (L54H)
B15: MYT2666 (antibody, V domains shown)
VH: QVQLVQSGAEVKKPGASVKVSCKASGYTFTNYDINWVRQAPGQGLEWIGWIYPGDGSTKYNEKFKAKATLTADTSTSTAYMELRSLRSDDTAVYYCASGYEDAMDYWGQGTTVTVSS
VL: DIQMTQSPSSLSASVGDRVTINCKASQDINSYLSWFQQKPGKAPKTLIYRAHRLVDGVPSRFSGSGSGQDYTLTISSLQPEDFATYYCLQYDEFPLTFGGGTKVEIK
notes: IgG; vadastuximab VL variant #14 (N52H)
B16: MYT2669 (antibody, V domains shown)
VH: QVQLVQSGAEVKKPGASVKVSCKASGYTFTNYDINWVRQAPGQGLEWIGWIYPGDGSTKYNEKFKAKATLTADTSTSTAYMELRSLRSDDTAVYYCASGYEDAMDYWGQGTTVTVSS
VL: DIQMTQSPSSLSASVGDRVTINCKASQDINSYLSWFQQKPGKAPKTLIYRANRLHDGVPSRFSGSGSGQDYTLTISSLQPEDFATYYCLQYDEFPLTFGGGTKVEIK
notes: IgG; vadastuximab VL variant #17 (V55H)
B17: MYT2660 (antibody, V domains shown)
VH: QVQLVQSGAEVKKPGASVKVSCKASGYTFTNYDINWVRQAPGQGLEWIGWIYPGDGSTKYNEKFKAKATLTADTSTSTAYMELRSLRSDDTAVYYCASGYEDAMDYWGQGTTVTVSS
VL: DIQMTQSPSSLSASVGDRVTINCKASQDINHYLSWFQQKPGKAPKTLIYRANRLVDGVPSRFSGSGSGQDYTLTISSLQPEDFATYYCLQYDEFPLTFGGGTKVEIK
notes: IgG; vadastuximab VL variant #8 (S31H)
B18: MYT2679 (antibody, V domains shown)
VH: QVQLVQSGAEVKKPGASVKVSCKASGYTFTNYDINWVRQAPGQGLEWIGWIYPGDGSTKYNEKFKAKATLTADTSTSTAYMELRSLRSDDTAVYYCASGYEDAMDYWGQGTTVTVSS
VL: DIQMTQSPSSLSASVGDRVTINCKASQDINSYLSWFQQKPGKAPKTLIYRANRLVDGVPSRFSGSGSGQDYTLTISSLQPEDFATYYCLQYDEFPLHFGGGTKVEIK
notes: IgG; vadastuximab VL variant #27 (T97H)

The binders below were run against CD33 (Sino Biological, Cat #12238-H08H) (UniProt P20138 18-259) (assay: BLI, IgG captured on anti-human Fc sensor, 50 nM CD33, pH 7.4 vs pH 5.4).
Sequence of CD33 (Sino Biological, Cat #12238-H08H) (P20138 18-259 limits assumed): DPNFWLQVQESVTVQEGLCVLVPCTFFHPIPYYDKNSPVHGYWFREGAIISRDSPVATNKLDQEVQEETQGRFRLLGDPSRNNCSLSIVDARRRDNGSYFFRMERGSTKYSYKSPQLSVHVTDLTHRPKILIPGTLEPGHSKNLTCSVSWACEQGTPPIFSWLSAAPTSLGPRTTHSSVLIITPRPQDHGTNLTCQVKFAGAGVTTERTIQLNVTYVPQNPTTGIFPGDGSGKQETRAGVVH

Q: Does B1 bind?
A: binds

Q: Does B2 bind?
A: binds

Q: Does B3 bind?
A: binds

Q: Does B4 bind?
A: binds

Q: Does B5 bind?
A: binds

Q: Does B6 bind?
A: binds

Q: Does B7 bind?
A: binds

Q: Does B8 bind?
A: binds

Q: Does B9 bind?
A: binds

Q: Does B10 bind?
A: binds

Q: Does B11 bind?
A: binds

Q: Does B12 bind?
A: binds

Q: Does B13 bind?
A: binds

Q: Does B14 bind?
A: binds

Q: Does B15 bind?
A: binds

Q: Does B16 bind?
A: binds

Q: Does B17 bind?
A: binds

Q: Does B18 bind?
A: binds

— US20220324969A1 (MYTHIC THERAPEUTICS, published 2022)
